# Source: publication PMC7954794 (2021)
# B1: S. cerevisiae Abp1 (full length; SH3 domain 535-592 mutated) / Hua2 (parent complex)
# chain 1: MALEPIDYTTHSREIDAEYLKIVRGSDPDTTWLIISPNAKKEYEPESTGSSFHDFLQLFDETKVQYGLARVSPPGSDVEKIIIIGWCPDSAPLKTRASFAANFAAVANNLFKGYHVQVTARDEDDLDENELLMKISNAAGARYSIQTSSKQQGKASTPPVKKSFTPSKSPAPVSKKEPVKTPSPAPAAKISSRVNDNNDDDDWNEPELKERDFDQAPLKPNQSSYKPIGKIDLQKVIAEEKAKEDPRLVQKPTAAGSKIDPSSDIANLKNESKLKRDSEFNSFLGTTKPPSMTESSLKNDDDKVIKGFRNEKSPAQLWAERKAKQNSGNAETKAEAPKPEVPEDEPEGEPDVKDLKSKFEGLAASEKEEEEMENKFAPPPKKSEPTIISPKPFSKPQEPVKAEEAEQPKTDYKKIGNPLPGMHIEADNEEEPEENDDDWDDDEDEAAQPPLPSRNVASGAPVQKEEPEQEEIAPSLPSRNSIPAPKQEEAPEQAPEEEIEEEAEEAAPQLPSRSSAAPPPPPRRATPEKKPKENPWATAEYDYDAAEDNELTFVENDKIINIEFVDDDWWLGELEKDGSKGLFPSNYVSLGN
# chain 2: MQQTKFGKMYLDHDSVVEYSEDEIVEADRITLGYKKRLSMIENQMRHLLEDFSLDVQQIEPILADLQKYYDAFLQLLQKRNKSLQCKRSTHQPVPSPMNSQTSTNAKVNLSGKLMKFQLNSVQKFDEENILRILQNKIEFEHYFQIDKGKKQKVLLLAVYQCLNGPTRLHKVLNIEGIIHNNSIRTILGKQVSSSKWTVFLYDVKLVLLAHRQDVPNLETSKMIVRYGDLFPCALYFKDHTAY
# Variants of: B1
# Assay: DHFR protein-fragment complementation in yeast (Abp1-DHFR F[1,2] x partner-DHFR F[3]), deep mutational scanning, second methotrexate selection vs reference; S. cerevisiae, DHFR-PCA selection in liquid with methotrexate at 30 C, two 72 h selections (the score uses the second); reference = the pre-selection culture
row,Variant,screen value
1,chain 1 MALEPIDYTTHSREIDAEYLKIVRGSDPDTTWLIISPNAKKEYEPESTGSSFHDFLQLFDETKVQYGLARVSPPGSDVEKIIIIGWCPDSAPLKTRASFAANFAAVANNLFKGYHVQVTARDEDDLDENELLMKISNAAGARYSIQTSSKQQGKASTPPVKKSFTPSKSPAPVSKKEPVKTPSPAPAAKISSRVNDNNDDDDWNEPELKERDFDQAPLKPNQSSYKPIGKIDLQKVIAEEKAKEDPRLVQKPTAAGSKIDPSSDIANLKNESKLKRDSEFNSFLGTTKPPSMTESSLKNDDDKVIKGFRNEKSPAQLWAERKAKQNSGNAETKAEAPKPEVPEDEPEGEPDVKDLKSKFEGLAASEKEEEEMENKFAPPPKKSEPTIISPKPFSKPQEPVKAEEAEQPKTDYKKIGNPLPGMHIEADNEEEPEENDDDWDDDEDEAAQPPLPSRNVASGAPVQKEEPEQEEIAPSLPSRNSIPAPKQEEAPEQAPEEEIEEEAEEAAPQLPSRSSAAPPPPPRRATPEKKPKENPWATAEYDYDAAEDNELTFVHNDKIINIEFVDDDWWLGELEKDGSKGLFPSNYVSLGN [chain 1 E555H],"-0.509 DMS score: mean over two replicates of log2(f_test/f_ref + 0.5)/ln 2, minus the synonymous-codon median (not a log2 …"
2,chain 1 MALEPIDYTTHSREIDAEYLKIVRGSDPDTTWLIISPNAKKEYEPESTGSSFHDFLQLFDETKVQYGLARVSPPGSDVEKIIIIGWCPDSAPLKTRASFAANFAAVANNLFKGYHVQVTARDEDDLDENELLMKISNAAGARYSIQTSSKQQGKASTPPVKKSFTPSKSPAPVSKKEPVKTPSPAPAAKISSRVNDNNDDDDWNEPELKERDFDQAPLKPNQSSYKPIGKIDLQKVIAEEKAKEDPRLVQKPTAAGSKIDPSSDIANLKNESKLKRDSEFNSFLGTTKPPSMTESSLKNDDDKVIKGFRNEKSPAQLWAERKAKQNSGNAETKAEAPKPEVPEDEPEGEPDVKDLKSKFEGLAASEKEEEEMENKFAPPPKKSEPTIISPKPFSKPQEPVKAEEAEQPKTDYKKIGNPLPGMHIEADNEEEPEENDDDWDDDEDEAAQPPLPSRNVASGAPVQKEEPEQEEIAPSLPSRNSIPAPKQEEAPEQAPEEEIEEEAEEAAPQLPSRSSAAPPPPPRRATPEKKPKENPWATAEYDYDAAEDNELTFVENDKIINIEFVDDDWWLGEKEKDGSKGLFPSNYVSLGN [chain 1 L574K],"0.584 DMS score: mean over two replicates of log2(f_test/f_ref + 0.5)/ln 2, minus the synonymous-codon median (not a log2 …"

# Next, values leading:
row,screen value,Variant
1,"-0.716 DMS score: mean over two replicates of log2(f_test/f_ref + 0.5)/ln 2, minus the synonymous-codon median (not a log2 …",chain 1 MALEPIDYTTHSREIDAEYLKIVRGSDPDTTWLIISPNAKKEYEPESTGSSFHDFLQLFDETKVQYGLARVSPPGSDVEKIIIIGWCPDSAPLKTRASFAANFAAVANNLFKGYHVQVTARDEDDLDENELLMKISNAAGARYSIQTSSKQQGKASTPPVKKSFTPSKSPAPVSKKEPVKTPSPAPAAKISSRVNDNNDDDDWNEPELKERDFDQAPLKPNQSSYKPIGKIDLQKVIAEEKAKEDPRLVQKPTAAGSKIDPSSDIANLKNESKLKRDSEFNSFLGTTKPPSMTESSLKNDDDKVIKGFRNEKSPAQLWAERKAKQNSGNAETKAEAPKPEVPEDEPEGEPDVKDLKSKFEGLAASEKEEEEMENKFAPPPKKSEPTIISPKPFSKPQEPVKAEEAEQPKTDYKKIGNPLPGMHIEADNEEEPEENDDDWDDDEDEAAQPPLPSRNVASGAPVQKEEPEQEEIAPSLPSRNSIPAPKQEEAPEQAPEEEIEEEAEEAAPQLPSRSSAAPPPPPRRATPEKKPKENPWATAEYDYDAAEDNELTFVENDKIINIEFVDDDWWLGELEKDGSKGLFPVNYVSLGN [chain 1 S585V]
2,"-0.913 DMS score: mean over two replicates of log2(f_test/f_ref + 0.5)/ln 2, minus the synonymous-codon median (not a log2 …",chain 1 MALEPIDYTTHSREIDAEYLKIVRGSDPDTTWLIISPNAKKEYEPESTGSSFHDFLQLFDETKVQYGLARVSPPGSDVEKIIIIGWCPDSAPLKTRASFAANFAAVANNLFKGYHVQVTARDEDDLDENELLMKISNAAGARYSIQTSSKQQGKASTPPVKKSFTPSKSPAPVSKKEPVKTPSPAPAAKISSRVNDNNDDDDWNEPELKERDFDQAPLKPNQSSYKPIGKIDLQKVIAEEKAKEDPRLVQKPTAAGSKIDPSSDIANLKNESKLKRDSEFNSFLGTTKPPSMTESSLKNDDDKVIKGFRNEKSPAQLWAERKAKQNSGNAETKAEAPKPEVPEDEPEGEPDVKDLKSKFEGLAASEKEEEEMENKFAPPPKKSEPTIISPKPFSKPQEPVKAEEAEQPKTDYKKIGNPLPGMHIEADNEEEPEENDDDWDDDEDEAAQPPLPSRNVASGAPVQKEEPEQEEIAPSLPSRNSIPAPKQEEAPEQAPEEEIEEEAEEAAPQLPSRSSAAPPPPPRRATPEKKPKENPWATAEYDYDAAEDNELTFVENDKIIKIEFVDDDWWLGELEKDGSKGLFPSNYVSLGN [chain 1 N561K]
3,"1.23 DMS score: mean over two replicates of log2(f_test/f_ref + 0.5)/ln 2, minus the synonymous-codon median (not a log2 …",chain 1 MALEPIDYTTHSREIDAEYLKIVRGSDPDTTWLIISPNAKKEYEPESTGSSFHDFLQLFDETKVQYGLARVSPPGSDVEKIIIIGWCPDSAPLKTRASFAANFAAVANNLFKGYHVQVTARDEDDLDENELLMKISNAAGARYSIQTSSKQQGKASTPPVKKSFTPSKSPAPVSKKEPVKTPSPAPAAKISSRVNDNNDDDDWNEPELKERDFDQAPLKPNQSSYKPIGKIDLQKVIAEEKAKEDPRLVQKPTAAGSKIDPSSDIANLKNESKLKRDSEFNSFLGTTKPPSMTESSLKNDDDKVIKGFRNEKSPAQLWAERKAKQNSGNAETKAEAPKPEVPEDEPEGEPDVKDLKSKFEGLAASEKEEEEMENKFAPPPKKSEPTIISPKPFSKPQEPVKAEEAEQPKTDYKKIGNPLPGMHIEADNEEEPEENDDDWDDDEDEAAQPPLPSRNVASGAPVQKEEPEQEEIAPSLPSRNSIPAPKQEEAPEQAPEEEIEEEAEEAAPQLPSRSSAAPPPPPRRATPEKKPKENAWATAEYDYDAAEDNELTFVENDKIINIEFVDDDWWLGELEKDGSKGLFPSNYVSLGN [chain 1 P535A]
